Test results as given in the supplement of paper PMC10567573.

Assay: protein stability index of a GFP-peptide fusion (GPS, HEK-293T) (PSI 1-6); higher = more stable
Settings: c terminus: native
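Note: lentivirally expressed fusion library, cells FACS-sorted into six equal-sized GFP/DsRed ratio bins, PSI computed from sequencing read fractions per bin weighted by bin number.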

## CQPISFSGFGAEDDDLGGLGLGPK [POLD2 addK]
parent: NP_006221.1
  protein stability index: 4.81

## LPALFTDLYSQEITAEEAREALPK [SNF8 addK]
parent: NP_009172.2
  protein stability index: 5.17

## EQRNSRWNTVLRAVKAKTHHLEPK [TRPA1 addK]
parent: NP_015628.1
  protein stability index: 5.03

## HSLRAVSTDPPHHDHHDEFCLMPK [BEX2 addK]
parent: NP_116010.1
  protein stability index: 4.67

## DGWIRVSSDNVADLHEKYSGSTPK [PSMB5 addK]
parent: NP_002788.1
  protein stability index: 4.81
